Measured values published in the supplement of paper PMC12042874.
± gives the uncertainty stated by the source.

Experiment: amyloid nucleation score (Sup35N fusion, yeast selection) (log enrichment); library NNK2; higher = more nucleation; inactive = no reads after selection
Outline: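 Libraries of peptides of 20 random codons fused to Sup35N were expressed in psi-negative yeast and induced 24 hours with 100 μM copper sulfate. Selection was 7 days at 30°C on medium lacking adenine and uracil, and plasmid inserts were Illumina-sequenced before and after selection. Nucleation score is the DiMSum log enrichment of output over input reads, centred on the mode score of non-aggregating sequences, and sequences with under 100 input reads were left out.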

Substance | amyloid nucleation score
NCKMVMIGCDRNYL | -1.37 ± 1.1
FHRCSYLVT | 2.95 ± 0.09
FWVFTNIESMGLAYCDNQDL | 3.09 ± 0.064
YVSLNNRQKFLAARLPKLEG | -0.51 ± 0.64
SGFGCLFTMW | 1.63 ± 0.27
DLGYDLTINWAFERLADRVN | -1.46 ± 1
KPFFEKFVSTLGLWFEQLKS | -0.574 ± 0.42
PSNKLKWLCLDV | 0.576 ± 0.43
ICWHV | -0.277 ± 1.1
GMSQAIVGVICSGIYLPEVR | 0.44 ± 0.37
LTYLVADLL | -0.142 ± 0.79
YTGHFTSC | -0.496 ± 0.48
VYMHASCSERSMDESRNRVD | inactive
EAFYLSFFN | inactive
VICGLTPDRDAHMYLTIFWL | 0.578 ± 0.81
KWRAFYPSTGSLRVEILSF | -1.22 ± 1.1
RYWTSIGCGR | 0.589 ± 0.32
LCIDHYVDEMPSIRVVDFYF | 0.741 ± 0.6
SLYFLTGWSFMMDQGVSTPC | 6.934 ± 0.058
IVHQGLLIRPIDGVGRLTLS | 4.05 ± 0.1
CAGPPLLAKVGWIIMYSLVV | 0.258 ± 0.55
IRLTRY | -0.338 ± 0.35
CNPVAV | 0.8 ± 0.66
SEPKEVCLVIGGEEYKGVVS | 0.364 ± 0.37
LNILHNFRKRTLFAAMFVLR | inactive

Substance | amyloid nucleation score
DYKDYNLCGITHMESF | -0.442 ± 1
SGRYFRIRRPYEDCQGREVA | 1.22 ± 0.38
SWNTVVFSGKDNSILGVLAQ | -0.176 ± 0.45
FFKLNVRERYWLVKGKSRFR | 2.96 ± 0.087
FYCRVFTLSGFVRIWGDC | -0.562 ± 1.1
SFDCKVMVFCAMRYNLRIMS | -1 ± 0.5
AYCCINLHYNLKVS | 0.665 ± 0.65
DMRLWCVWSSIACDTSYSTS | 0.26 ± 0.2
ICKRVVVLWHSKEPDALFVG | inactive
MCFFMAREEASRGAKGLAER | 1.66 ± 0.19
LMLTCKLSFPGLVNLSCSPI | -0.84 ± 0.34
YKSSGLLSYTSIGNVDIYFV | 6.26 ± 0.079
DVQGWFVITSGFADGSQARR | 1.19 ± 0.17
AAMPLPF | inactive
GVCVI | 0.775 ± 0.4
FDQSFFNLPQGTFLVLYSSA | inactive
ILFIIWGHLRYVRIVSYVGY | -1.48 ± 0.62
QNESHIH | 6.31 ± 0.079
VSSPLAWKFLVNKICISDGG | inactive
FIILI | -1.29 ± 0.54
WDNLNDFHN | -1.35 ± 1.1
PAWSITLVPLLHTGCSDTKR | 0.582 ± 0.31
RCSVVNWDNHVMLALDRVGY | inactive
SVLLVSLDFSPITGYSKGGL | 2.72 ± 0.082
KNNRVAFTLYFSQTARDWMH | 5.156 ± 0.046

Substance | amyloid nucleation score
NKSSLRVCRPLSWNMSMVSN | 0.593 ± 0.44
TIFLFLFSMVSVVICLMVLP | -1.31 ± 0.55
IDSILICIMHDCIYIEYLRN | 4.44 ± 0.094
LANYYFYYKDDVWQVMLWCT | -1.15 ± 0.36
IQRPADRIQHMTMWHTQDLV | 1.14 ± 0.37
VVNCCGWMVPVGPSHW | 10.32 ± 0.035
LLHSSYIIK | 0.115 ± 1
LRKIYFWWAATNALLEMRGW | 0.057 ± 0.38
CLGFGRSSPTGYNTCVVRNY | -0.493 ± 1.1
GLTVHTVWLA | 0.189 ± 0.4
IVGHRVLACVRPRRVVTRYG | 0.118 ± 0.63
YGPSCSICPVVVIPSF | inactive
SADRECCQHEFGASPRLRVG | 4.907 ± 0.041
SQRHRAFTSWRGLMRYN | -0.476 ± 1.1
RGNHNHGLWNPKNSMVMWEG | 0.062 ± 0.48
CFDCNIRGSVWKVYISLIVG | inactive
TLTSSCVNFINMLHEIFRYS | -0.623 ± 1
YFVFHDQKSTNLGWIFVFCR | 0.108 ± 0.65
QLESRRDDHRVHESADGSA | 0.466 ± 0.33
NIRKMSGFVNSYTAYSQGEL | inactive
VHLSKDLCYLLSGYGYFPCF | -0.216 ± 0.36
FYKDKETCLECWMIYENCRK | -0.29 ± 0.32
SFTYASSV | -1.1 ± 0.28
SNFSMVCAVCV | 0.454 ± 0.34
SAGVEAREMRTSYLGSSEVG | 1.28 ± 0.32

Substance | amyloid nucleation score
VCDFNVLDGCGNPGLL | -0.67 ± 1.1
RYGFSVSITMIFYRGGFCRW | inactive
VLWVS | inactive
VYYSNTTTRSCSEMQVVFFF | -1.13 ± 0.41
FVRSWSTCCDA | -0.176 ± 0.31
TYEIFLVPS | 0.41 ± 0.74
LFAIKTGQDHCNTRLKKSQC | -0.087 ± 0.76
LSESRRQVASASDLMKRRIP | 1.24 ± 0.66
GPLLVIWVRTLGRELG | 0.841 ± 0.26
NHLIV | -1.09 ± 0.3
SVCYGSSIWN | -0.083 ± 0.39
GVPYFLRW | -1.32 ± 0.48
DQTWNWNVGIGFYRSYFLMY | inactive
VVGFSMFYKWDMNSMVSRMS | 2.27 ± 0.084
DAWKLNTDIYSANRYFIDLV | -0.651 ± 0.27
LGSLDPKRHLYI | -0.784 ± 1.1
VTPDLDCLRDNDMVCGGPDQ | 0.171 ± 0.23
LIVVKCLSRRYCFCLLSVVV | 0.303 ± 0.32
TRNAFNCTENISTLPTARYL | -0.399 ± 0.46
YWFQKLEGSRHDMV | -0.121 ± 1.1
LGLLCTVEIHYLGNMYIHRP | 7.043 ± 0.045
SPHLGLMCK | 0.416 ± 0.8
LNISFSDSLSRLVV | -0.935 ± 1.1
LSFLKVW | -0.654 ± 0.36
FNRLA | -0.603 ± 1.1

Substance | amyloid nucleation score
LYIIMMICIQSLFRYRGIKG | -0.975 ± 0.78
WYYFYLFDACLSVSCWAIWY | -0.283 ± 1
SPSLVTNFVENGFFGVDLLS | inactive
MLSLVMRVGFNCFIT | 0.208 ± 1.1
IDYHD | -1.45 ± 0.78
LRYNADMVGCKFWWIPVWSL | -0.843 ± 0.42
KLANV | inactive
IYREVYAL | inactive
DAWSCRRLF | inactive
STTHHARRFVSHESACLGAV | 1.11 ± 0.17
VGDRSFVMFSIFESAGSCCT | 1.03 ± 0.25
ICKGVRKIWSFGDMSWCRES | inactive
CFHVITVNPGLQ | 1.37 ± 0.39
YSLWLVVCYLLVCWNINCGT | 0.366 ± 0.44
SRTYATRLQLM | 0.007 ± 0.76
VLELLGPIMSRKIFLKVGFC | inactive
DCECGLNSWKKVT | inactive
HVEHGNCFQ | inactive
IPYGMSWTWSH | -0.565 ± 0.3
RVGQSIYMPPLRNGRAGVKW | 1.21 ± 0.27
LGSLDSVFNSFHRAGS | -0.518 ± 0.56
ILFGFSLPGSCDNWDRDAKG | -1.15 ± 0.78
ANKKIDSGNGLLDFQQNSQK | -0.249 ± 1
SMGINSGGRWRADSVSVGLR | 0.786 ± 0.23
DEIVSERDIVSSNRLCGSIM | -0.561 ± 1.1

Substance | amyloid nucleation score
VNNATKIGWSSMAIRDNKTI | -0.142 ± 0.49
GAGPGSLAKRHYWDSSSQYE | -0.024 ± 0.31
STRDQQWMMRNRG | -0.381 ± 0.79
SYNFM | inactive
SVGPLLYATMSMAGDSVAGA | 0.004 ± 0.34
VCNFSTLELVVEDGSKAYRG | -0.079 ± 0.3
QCLHSWDWLKSWFVFVGRGE | 3.88 ± 0.066
RCAMRVSARMSRSTGISRLR | 1.64 ± 0.15
GFGVPDWMFDSFSAAQLSQI | -0.343 ± 0.35
PWVNRCKELCMFVLGVDRGG | -0.588 ± 1.1
RSDSVYSIGCSNENRQSGRA | 1.21 ± 0.2
RCNQLIWTASDNWYYMWTTV | 1.8 ± 0.1
VLAGLMVNSGVL | -0.34 ± 0.3
IVACGCVSVSRRSLP | 3.09 ± 0.059
HGYSNNTSWAYI | 0.436 ± 0.65
SYNKMMVDRFKYADLRDVRA | 1.03 ± 0.38
YWLVRMVHGRAWPIFEENCQ | -0.01 ± 1
RVFMEH | -0.047 ± 1.1
MTFENFSSSHSWTDLLFLFI | 3.43 ± 0.078
TAKSVVA | -0.703 ± 0.29
RFQLVSAMAFTYMVAR | -0.211 ± 0.56
AGFTLYFGMTRNYQYSDCSP | 4.23 ± 0.066
NNWYILPFAGFWDFGA | 5.341 ± 0.03
HRDHGTISLHRKCSYVALAS | 1.14 ± 0.29
RFSELSHK | -0.144 ± 0.26

Substance | amyloid nucleation score
LNLLK | -1.18 ± 1.1
VCRHFVRVKDQMDRTFNDKQ | 0.18 ± 0.28
WCRWMGMH | 0.543 ± 0.47
FDWFNAYSF | 0.092 ± 0.61
GFLNLCRSTSRELMCEMYSA | -0.651 ± 1.1
CIDVSLFNGHACWIVCFSPV | 5.48 ± 0.045
YLVPFWVVDCFDGLD | 0.072 ± 1.1
CLIVFIADTAAYIKVSMSSV | inactive
ETTNTQVNAIVRNFGQ | 0.002 ± 0.55
NLSVHAENLDNNRSGAEV | -0.102 ± 0.76
GRDPGNDEIDKLALSWRLMG | 0.657 ± 0.32
HKGCGNSCIWHYFGNFWRFR | -0.658 ± 0.56
RIGDRSCSVRKEHKDAQWSI | 0.196 ± 0.77
VVRVFLKGSSCGSLEAFDYV | 2.86 ± 0.19
ALEMSMGKCFWGLVVVIMRW | -0.899 ± 0.36
LFCTRMEVSLLGFWNSYAEL | -0.01 ± 0.45
LLITR | -0.183 ± 1
SRLVVRN | inactive
AIEKSQYLSNVDYRICSLMT | -0.336 ± 0.23
MTGNVYKMIILIYNFFRRS | 2.7 ± 0.069
QLCAMKMDSRIFCVSCFTML | 7.049 ± 0.056
FRLNMAYDEPVCLMGSVHNV | -1.38 ± 0.54
